Biological target: T1, human TIGIT-hFc (human, UniProt Q495A1 22-141)
T1 sequence (looked up): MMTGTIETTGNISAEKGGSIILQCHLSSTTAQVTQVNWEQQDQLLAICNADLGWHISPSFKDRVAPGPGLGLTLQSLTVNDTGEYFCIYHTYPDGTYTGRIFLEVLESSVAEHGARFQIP
Assay: indirect ELISA screen of hybridomas with human TIGIT-hFc as antigen

binding result: binds
B1: 26B12 (antibody, V domains shown)
VH: EVQLQESGPGLVKPSQSLSLTCTVTGHSFTSDYAWNWIRQFPGNRLEWMGYISYSDSTNYNPSLKSRISITRDTSKNQFFLQMNSVTTEDTATYYCARLDYGNYGGAMDYWGQGTSVTVSS
VL: DIVLTQSHEFMSTSLRDRVSITCKSSQHVSTAVAWYQQKPGQSPKLLIYSASYRYTGVPDRFTGSGSGTDFTFTISSVKAEDLAVYYCQQHYITPWTFGGGTKLEIK
notes: Murine monoclonal antibody from a hybridoma; also called anti-TIGIT antibody 26B12; monoclonal antibody secreted by hybridoma cell line LT019

From patent publication EP4778535A1 (Akeso Biopharma Co., Ltd., dated 2026)
